According to publication PMC12633535 (bioRxiv, 2025):

Key:
Experiment in all cases: BLI
[1] = target: T1, β-catenin C619Y/E620K (purified, full length, untagged) (human, UniProt P35222 1-781, C619Y | E620K)
T1 sequence (looked up): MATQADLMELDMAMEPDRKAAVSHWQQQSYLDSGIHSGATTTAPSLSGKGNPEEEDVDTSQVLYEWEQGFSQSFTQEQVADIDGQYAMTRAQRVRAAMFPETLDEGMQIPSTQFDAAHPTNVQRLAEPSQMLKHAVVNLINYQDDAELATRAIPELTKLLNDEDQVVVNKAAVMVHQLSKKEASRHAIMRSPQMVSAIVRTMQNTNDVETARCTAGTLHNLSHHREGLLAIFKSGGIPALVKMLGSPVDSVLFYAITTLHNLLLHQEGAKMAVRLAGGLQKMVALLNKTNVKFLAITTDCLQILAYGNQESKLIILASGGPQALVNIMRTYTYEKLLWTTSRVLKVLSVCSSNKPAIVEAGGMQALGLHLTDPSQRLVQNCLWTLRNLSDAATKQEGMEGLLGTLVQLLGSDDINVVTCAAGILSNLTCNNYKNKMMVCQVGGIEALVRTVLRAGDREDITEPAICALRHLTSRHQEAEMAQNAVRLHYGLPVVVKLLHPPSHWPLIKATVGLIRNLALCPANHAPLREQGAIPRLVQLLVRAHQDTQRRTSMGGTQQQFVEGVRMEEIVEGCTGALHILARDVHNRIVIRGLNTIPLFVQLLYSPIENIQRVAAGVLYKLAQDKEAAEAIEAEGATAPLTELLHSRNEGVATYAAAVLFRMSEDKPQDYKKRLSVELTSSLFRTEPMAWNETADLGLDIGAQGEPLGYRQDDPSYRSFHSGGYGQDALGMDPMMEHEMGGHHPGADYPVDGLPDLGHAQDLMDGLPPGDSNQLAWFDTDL

[2] = target: T2, full-length β-catenin E462K, untagged (human, UniProt P35222 1-781, E462K)
T2 sequence (looked up): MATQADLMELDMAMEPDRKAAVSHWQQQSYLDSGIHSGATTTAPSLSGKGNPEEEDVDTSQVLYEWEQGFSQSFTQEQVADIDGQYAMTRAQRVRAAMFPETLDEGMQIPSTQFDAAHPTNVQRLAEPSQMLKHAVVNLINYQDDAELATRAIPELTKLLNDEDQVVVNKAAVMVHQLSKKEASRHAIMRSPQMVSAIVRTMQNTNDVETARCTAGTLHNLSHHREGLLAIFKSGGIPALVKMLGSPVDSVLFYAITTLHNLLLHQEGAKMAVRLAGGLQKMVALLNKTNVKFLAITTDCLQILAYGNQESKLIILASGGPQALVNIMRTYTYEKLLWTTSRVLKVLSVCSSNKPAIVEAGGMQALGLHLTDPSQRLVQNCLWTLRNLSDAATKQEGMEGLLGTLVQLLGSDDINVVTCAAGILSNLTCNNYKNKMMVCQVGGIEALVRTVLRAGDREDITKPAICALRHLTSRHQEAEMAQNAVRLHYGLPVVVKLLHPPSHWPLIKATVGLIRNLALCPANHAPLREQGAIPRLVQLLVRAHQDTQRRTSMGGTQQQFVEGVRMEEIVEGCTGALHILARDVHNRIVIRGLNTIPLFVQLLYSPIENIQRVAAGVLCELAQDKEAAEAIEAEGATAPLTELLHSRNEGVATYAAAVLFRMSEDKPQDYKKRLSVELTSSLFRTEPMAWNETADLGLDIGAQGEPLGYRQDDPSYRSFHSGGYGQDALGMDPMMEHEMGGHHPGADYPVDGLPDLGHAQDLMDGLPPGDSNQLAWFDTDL

[3] = target: T3, full-length β-catenin, untagged, wild type (human, UniProt P35222 1-781)
T3 sequence (looked up): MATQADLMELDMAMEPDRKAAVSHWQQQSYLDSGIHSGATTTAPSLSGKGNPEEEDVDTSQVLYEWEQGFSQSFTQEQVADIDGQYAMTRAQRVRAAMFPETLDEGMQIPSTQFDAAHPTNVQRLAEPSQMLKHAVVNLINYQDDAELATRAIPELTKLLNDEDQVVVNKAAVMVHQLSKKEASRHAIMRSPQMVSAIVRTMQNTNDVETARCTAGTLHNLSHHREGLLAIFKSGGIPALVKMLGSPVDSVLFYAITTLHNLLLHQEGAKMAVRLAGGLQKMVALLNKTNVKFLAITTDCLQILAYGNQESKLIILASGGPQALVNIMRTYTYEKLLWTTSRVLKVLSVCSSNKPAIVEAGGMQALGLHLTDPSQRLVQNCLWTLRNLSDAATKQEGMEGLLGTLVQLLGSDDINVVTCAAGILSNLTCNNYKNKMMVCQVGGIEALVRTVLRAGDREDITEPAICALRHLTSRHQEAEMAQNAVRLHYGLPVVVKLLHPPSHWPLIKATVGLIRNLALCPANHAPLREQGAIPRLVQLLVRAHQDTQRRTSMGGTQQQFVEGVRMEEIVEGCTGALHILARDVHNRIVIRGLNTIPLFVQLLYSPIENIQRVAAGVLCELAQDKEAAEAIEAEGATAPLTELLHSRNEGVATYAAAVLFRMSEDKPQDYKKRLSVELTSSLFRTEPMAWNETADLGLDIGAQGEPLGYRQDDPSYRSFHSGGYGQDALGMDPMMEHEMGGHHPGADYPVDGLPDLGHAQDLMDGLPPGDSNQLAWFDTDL

Measured: binding result

B1: GST-tagged TCF4 fragment (a.a. 1–53) (domain or fragment, UniProt Q9NQB0 1-53, looked up)
chain: MPQLNGGGGDDLGANDELISFKDEGEQEEKSSENSSAERDLADVKSSLVNESE
binds: all assays above
